Source: patent US20260209318A1 (NATIONAL UNIVERSITY OF SINGAPORE, published 2026)

What was measured:
[1] = biological target: T1, BQ.1.1 spike protein (SARS-CoV-2 variant BQ.1.1, UniProt P0DTC2 14-1273); assay: cell-based or functional assay
[2] = biological target: XBB.1 spike protein (SARS-CoV-2 variant XBB.1, UniProt P0DTC2 14-1273); assay: cell-based or functional assay
[3] = biological target: T1, BQ.1.1 spike protein; assay: pVNT (FIG. 1E, 1F, 2A, 3 cited); no direct binding assay described
[4] = biological target: SARS-CoV-2 XBB.1 RBD (SARS-CoV-2 XBB.1, UniProt P0DTC2 319-541); assay: multiplex sVNT, RBD-coated beads, PE-hACE2 as competitor
[5] = biological target: SARS-CoV-2 B.1.351 (beta) RBD (SARS-CoV-2 B.1.351 (beta), UniProt P0DTC2 319-541); assay: as above
[6] = biological target: SARS-CoV-2 B.1.617.2 (delta) RBD (SARS-CoV-2 B.1.617.2 (delta), UniProt P0DTC2 319-541); assay: as above
[7] = biological target: SARS-CoV-2 B.1.1.529.1 (BA.1) RBD (SARS-CoV-2 B.1.1.529.1 (BA.1), UniProt P0DTC2 319-541); assay: as above
[8] = biological target: SARS-CoV-2 B.1.1.529.5 (BA.5) RBD (SARS-CoV-2 B.1.1.529.5 (BA.5), UniProt P0DTC2 319-541); assay: as above

B1: Ab1 (B11.2) (antibody, V domains shown)
VH: EVQLVESGGGLVQPGGSLRLSCAASEIIVSRNYMTWVRQAPGKGLEWLAVLYAGGSSFYADSVKGRFTISRDNSKNTLFLQMNSLRAEDTAVYYCARDLSLSGGFDYWGQGALVTVSS
VL: DIQLTQSPSFLSASVGDRVTITCRASQGISNYLAWYQQNPGKAPKLLIYAVSTLHSGVPSRFSGSGSGTEFTLTISSLQPEDFATYYCQHLNTDSCTFGQGTKLEIK
IC50 (pVNT) [1]: ≤ 300 ng/ml | concentration required to effectively neutralize (pVNT) [1]: 16.5 ng/ml | concentration required to effectively neutralize (pVNT) [2]: 11.6 ng/ml

B2: LyCov-1404 (bebtelovimab) (antibody, V domains shown)
VH: QITLKESGPTLVKPTQTLTLTCTFSGFSLSISGVGVGWLRQPPGKALEWLALIYWDDDKRYSPSLKSRLTISKDTSKNQVVLKMTNIDPVDTATYYCAHHSISTIFDHWGQGTLVTVSS
VL: QSALTQPASVSGSPGQSITISCTATSSDVGDYNYVSWYQQHPGKAPKLMIFEVSDRPSGISNRFSGSKSGNTASLTISGLQAEDEADYYCSSYTTSSAVFGGGTKLTVL
binding result [3]: no binding

B3: Ab50 (10x-L8N-c84) (antibody, V domains shown)
VH: QVQLVQSGAAVKKPGSSVKVSCEASGGTFSRFAVNWVRQAPGQGLEWMGRIIPLFAIANYPQRFQGRVIMSADRSTNITYMELSRLTSEDTAVYYCAREIDTVIDPAMDVFHGMEVWGQGTTVIVSS
VL: QSVLTQPPSASGTPGQRVTISCSGRSSNIGSNYVHWYQQLPGTAPKLLIYRNNQRPSGVPDRFSGSKSGTSASLAISGLRSEDEADYYCAGWDDSLSGAVFGGGTKLSVL
IC50 (pVNT) [1]: ≤ 550 ng/ml

B4: Ab2 (H12.2) (antibody, V domains shown)
VH: EFQLVESGGRLVRPGGSLRLSCVASEIIVSRNYMSWIRQAPGKGLEWVSILYAGGTTYYADSVKGRFTISRDNSKNTLYLQLNSLRVEDTAIYYCVRPIVGGRGGMDVWGQGTTVTVSS
VL: DIQMTQSPSSLSASVGDRVTITCQASQDINKYLNWYQQKPGKAPKLLIYDASNLEPGVPSRFSGSGSGTDFVFTITSLQPEDIATYYCHYYDDVPYTFGQGTQLEIK
IC50 (pVNT) [1]: ≤ 300 ng/ml | concentration required to effectively neutralize (pVNT) [1]: 16.6 ng/ml | concentration required to effectively neutralize (pVNT) [2]: 8.5 ng/ml | times less than the concentration of E7 [2]: ~40 times | binding result [4]: binds

B5: Ab5 (10x-L8N-c25) (antibody, V domains shown)
VH: DFQLVESGGGLVRPGGSLRLSCVASEITVSRNYMSWIRQAPGKGLEWVSIIYPGGTTYYADSVKGRFTISRDNSKNTMYLQLNSLRPEDTAIYYCVRPIVRGGGGMDVWGQGTTVTVSS
VL: DIQMTQSPSSLSASVGDRVTITCQASQDINKYLNWYQQKPGKAPKLLIYDATNLEPGVPSRFSGSGSGTDFVFTITSLQPEDIATYYCQYYDDVPYTFGQGTQLEIK
IC50 (pVNT) [1]: ≤ 300 ng/ml | concentration required to effectively neutralize (pVNT) [1]: 57.5 ng/ml | times less than the concentration of E7 [1]: ~10 times | concentration required to effectively neutralize (pVNT) [2]: 40.8 ng/ml | times less than the concentration of E7 [2]: ~8 times

B6: Ab44 (10x-L8N-c53) (antibody, V domains shown)
VH: QVQLQQSGAEVKKPGSSVKVSCESSGGTFTSHAINWVRQAPGQRLEWMGRIIPVLGVAAYAQKFQGRVTLTADKFTSTAYMELSSLRSEDTAVYFCARSAYNYDSSGYHFDYWGQGTLVLVSS
VL: DIQMTQSPSTLSASVGDRVTITCRASQSISNWLAWYQQKPGTAPKLLIFKASTLQSGVPSRFSGSGSGTEFTLTISSLQPDDFATYHCQQYHSSRSFGQGTKVEIK
IC50 (pVNT) [1]: ≤ 550 ng/ml

B7: Ab47 (10x-L8N-c64) (antibody, V domains shown)
VH: QVQLVQSGAEVKKPGSSVKVSCEASGDTFSRYAITWVRQAPGQGLEWMGRIIPMFGSANYAQKFQGRVSFTADKSTSTASMELSSLRSEDTAVYYCATSPYYSDSGGYYCDYWGQGSLVTVSS
VL: DIQMTQSPSSLSASVGDRVTITCRASQGISNYLAWYQQKPGKAPKLLLYGASRLQSGVPSRFSGSGSGTDYTLTISSLQPEDFATFYCQQYYSAPRTFGQGTKVEIK
IC50 (pVNT) [1]: ≤ 550 ng/ml

B8: Ab43 (10x-L8N-c42) (antibody, V domains shown)
VH: EVQLVESGGGLVKPGGSLRLSCAASGFTFSRHTMNWVRQAPGKGLEWVSSIGGSTPLSFYAESVKGRFSISRDNAKSSLFLQMSSLRADDTAVYYCVRDSIASVTTLFDLWGRGTVVTVSS
VL: DIQMTQSPSSLSASVGDRVTITCRASQTIRNYINWYQQRPGKAPRLLIYDASTLQSGVPSRFSGGGSGTDFTLTISSLEPEDFATYYCQQSYVSPPEDSFGQGTKLEIK
IC50 (pVNT) [1]: ≤ 550 ng/ml

B9: SS6V11-E7 (antibody, V domains shown)
VH: QVQLQESGPGLVKPSETLSLTCTVSGGFIGPHYWSWVRQPPGKGLEWIGYIYISGSTNYNPSLKSRLTISVDMSKSQFSLTLSSATAADTAVYYCARGGGYLETGPFEYWGQGTLVTVSS
VL: DIVMTQSPLSLPVTPGEPASISCRSSQSLLQNNGYNYLAWYLQKPGQSPQLLIYLSSTRASGVPDRFSGSGSGTDFTLKISRVEAEDVGVYYCMQSLQIPGTFGQGTRLEIK
binding result [5]: binds | binding result [6]: binds | binding result [7]: binds | binding result [8]: binds | binding result [4]: binds

B10: Ab46 (10x-L8N-c63) (antibody, V domains shown)
VH: QVHLVQSGAEVKKPGSSVKVSCKASGGTFSSHTVSWVRQAPGQGLEWMGRIIPPFGIVNYAQKFQGRVTITADESTSTAYMELSSLSSEDTAVYYCARSNVVVVTEAGWFDPWGQGTLVTVSS
VL: DIQMTQSPSSVSASVGDRVTITCRASQGISSSLAWYQQKPGKAPKVLIFDASTLQSGVPSRFSGSGSGTDFTLTISNLRPEDFATYYCQQAHSFPFTFGPGTKVDIK
IC50 (pVNT) [1]: ≤ 550 ng/ml

B11: Ab48 (10x-L8N-c72) (antibody, V domains shown)
VH: QVQLQQWGAGLLKPSETLSLTCTVYGGSISGYYWNWIRQPPGKGLEWIGEIDHSGNTNYNSSLKSRITIALDTSKKEISLKVTSVTAADTAVYYCARLDYYHYSQDAWGQGTTVTVSS
VL: EIVLTQSPDFQSVTPKERVTITCRASQSIGASLHWYQLKPNQSPKLLIKYASQSISGVPSRFSGSGSGTDFTLTISSLEAEDAATYYCLQSSNLYSFGQGTKLEIK
IC50 (pVNT) [1]: ≤ 550 ng/ml

B12: Ab41 (10x-L8N-c39) (antibody, V domains shown)
VH: QVQLVQSGAEVKKPGASVKVSCKGSGYTFTDYGISWVRQAPGQGLEWMGWIRAYNGNTDYAQKFQGRVTMTRDTSTTTAYMELRSLRSDDTAVYFCALNLIAAAATPFDHWGQGTLVTVSS
VL: EIVLTQSPGTLSLSRGERATLSCRASQSVSSSYLAWYQQKRGQAPRLLIYGATSRATGIPDRFSGSGSGTDFTLTISRLEPEDFAVYYCQHYGSSPPPFGGGTKVEIR
IC50 (pVNT) [1]: ≤ 550 ng/ml

B13: Ab42 (10x-L8N-c41) (antibody, V domains shown)
VH: EVQLLESGGGLVQPGGSLRLSCAGSGFTFSSYAMSWVRQAPGKGLEWVSSISSSGGLTFYADSVRGRSTISRDHSRNTLYLQMNSLRAEDTALYYCAREQGDSYDDYFDYWGQGTLVTVSS
VL: DIQMTQSPSSLSASVGDRVTITCRASQGIRSSLAWYQQRPGKAPKLLLSAASILESGVPSRFSGSGSGTDYTLTINGLQPDDFATYYCQQYYVTPGITFGGGTKVEIR
IC50 (pVNT) [1]: ≤ 550 ng/ml

B14: Ab49 (10x-L8N-c73) (antibody, V domains shown)
VH: QVQLVQSGAEVKKPGSSVKVSCKASGGTFTTYAIAWVRQAPGQGLEWMGRIIPTLDNPNYAQKFQGRVSITADKSTGTSYMELRSLRSDDTAVYYCAHVSYDSSGPHLSWYFNLWGRGTLITVSS
VL: DIQMTQSPSTLSASVGDRVTITCRASQSIPSRLAWYQHKPGEAPKLLIYEASTLESGVPSRFSGSGSGTEFTLTITSLQPDDFATYFCQGWNAFGGGTKVEIK
IC50 (pVNT) [1]: ≤ 550 ng/ml

B15: Ab52 (10x-L8N-c89) (antibody, V domains shown)
VH: QVQLVQSGSEVKKPGSSVKVSCRASGDTFSSHSLSWVRQAPGQGLEWMGRIVPMFGITNYAQNFQGRVTFTADKSTSTAYMELSSLRSEDTAVYYCARAGTMITFGGLTDDGQLNWFDPWGQGTLVTVSS
VL: DVVLTQSPLSLSVTLGQPASISCRSSQSLEYSDGDTYLNWFHQRPGQSPRRLIYKVSNRDSGVPDRFSGSGAGTDFTLKISKVEAEDVGVYYCMQGTNWPPNFGPGTKVDIK
IC50 (pVNT) [1]: ≤ 550 ng/ml

B16: Ab51 (10x-L8N-c86) (antibody, V domains shown)
VH: EVQLVESGGGLVKPGESLRLSCAASGFTFSSSSLNWVRQAPGKGLEWVSSISISGDYTYYADSVKGRFTISRDNGKNSVYLQMDRLRVEDTAMYYCARDRFGFYDMLAHSYNVGFFQSWGQGTLVAVSS
VL: DIRMTQSPSSLSASVGDSVTITCRASQDITNYLAWFQQKPGKAPKSLIYSASILQSGVPSKFSGSGSGTDFTLTISSLQPEDFATYYCQQYLTYPITFGQGTRLEIK
IC50 (pVNT) [1]: ≤ 550 ng/ml
